Assay results from paper PMC4646777 (Science Advances, 2015).

T1: H6-tagged OsTPR2 N-terminal domain (TPD), TPR2(1–210) (rice, UniProt Q5NBT9 1-210)
T1 sequence (looked up): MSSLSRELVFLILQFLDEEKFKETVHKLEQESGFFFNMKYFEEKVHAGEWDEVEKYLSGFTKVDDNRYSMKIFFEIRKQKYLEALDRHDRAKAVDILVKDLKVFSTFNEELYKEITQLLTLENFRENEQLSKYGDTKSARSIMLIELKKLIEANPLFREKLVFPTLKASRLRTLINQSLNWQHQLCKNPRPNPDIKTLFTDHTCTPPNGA

T2: Gal4 DBD-NINJA full length (Arabidopsis, UniProt Q9SV55 1-425)
T2 sequence (looked up): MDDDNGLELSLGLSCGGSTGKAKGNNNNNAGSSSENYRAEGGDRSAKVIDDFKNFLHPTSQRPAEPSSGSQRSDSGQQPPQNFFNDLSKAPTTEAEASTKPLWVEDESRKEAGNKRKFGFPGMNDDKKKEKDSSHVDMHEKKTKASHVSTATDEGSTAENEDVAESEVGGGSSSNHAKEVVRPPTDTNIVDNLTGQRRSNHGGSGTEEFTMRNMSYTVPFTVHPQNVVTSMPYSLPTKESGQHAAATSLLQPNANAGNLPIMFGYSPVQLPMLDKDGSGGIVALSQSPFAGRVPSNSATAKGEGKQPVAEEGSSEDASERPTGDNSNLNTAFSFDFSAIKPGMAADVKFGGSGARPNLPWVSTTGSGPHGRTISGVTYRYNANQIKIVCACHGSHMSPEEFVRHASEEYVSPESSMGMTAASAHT


What was measured:
[1] = target: TraM-NINJA EAR fusion protein (tetrameric), untagged (not stated | Arabidopsis); test: SEC
[2] = target: H6-tagged OsTPR2 N-terminal domain (TPD), TPR2(1–210) (rice) (UniProt Q5NBT9); test: AlphaScreen or HTRF
[3] = target: T1, H6-tagged OsTPR2 N-terminal domain …; test: AlphaScreen or HTRF
SEC = target: the molecule itself; test: SEC
[4] = target: T2, Gal4 DBD-NINJA full length; test: two-hybrid
crystal structure = target: the molecule itself; test: crystal structure

Row | Molecule | stoichiometry N (SEC) | other results
1 | TraM-NINJA EAR fusion protein (tetrameric), untagged |  | stoichiometry N [1]: 4; IC50 [2]: 160 nM
2 | DNGLELSLGLSC [monomeric NINJA EAR motif peptide (12 amino acids, untagged)] |  | IC50 [3]: 38 µM
3 | Arabidopsis TPL TOPLESS domain (TPD), TPL(1–209), tag removed (domain or fragment, UniProt Q94AI7 1-209, looked up) MSSLSRELVFLILQFLDEEKFKETVHKLEQESGFFFNMKYFEDEVHNGNWDEVEKYLSGFTKVDDNRYSMKIFFEIRKQKYLEALDKHDRPKAVDILVKDLKVFSTFNEELFKEITQLLTLENFRENEQLSKYGDTKSARAIMLVELKKLIEANPLFRDKLQFPTLRNSRLRTLINQSLNWQHQLCKNPRPNPDIKTLFVDHSCGPPNG | 4 | 
4 | Arabidopsis TPR1 TOPLESS domain (TPD), TPR1(1–209), tag removed (domain or fragment, UniProt Q0WV90 1-209, looked up) MSSLSRELVFLILQFLDEEKFKETVHKLEQESGFFFNMKYFEDEVHNGNWDEVEKYLSGFTKVDDNRYSMKIFFEIRKQKYLEALDRHDRPKAVDILVKDLKVFSTFNEELFKEITQLLTLENFRENEQLSKYGDTKSARAIMLVELKKLIEANPLFRDKLQFPTLRTSRLRTLINQSLNWQHQLCKNPRPNPDIKTLFVDHSCRLPND | 4 | 
5 | Arabidopsis TPR3 TOPLESS domain (TPD), TPR3(1–209), tag removed (domain or fragment, UniProt Q84JM4 1-209, looked up) MSSLSRELVFLILQFLEEEKFKESVHRLEKESGFFFNTKYFDEKVLAGEWDDVETYLSGFTKVDDNRYSMKIFFEIRKQKYLEALDRQEKAKAVEILVQDLRVFSTFNEELYKEITQLLTLQNFRENEQLSKYGDTKTARGIMLGELKKLIEANPLFRDKLMFPTLRSSRLRTLINQSLNWQHQLCKNPRPNPDIKTLFTDHTCTLPNG | 4 | 
6 | OsTPR1 TOPLESS domain (TPD), TPR1(1–209), tag removed (domain or fragment, rice, UniProt Q10NY2 1-209, looked up) MSSLSRELVFLILQFLDEEKFKETVHKLEQESGFYFNMKYFEDEVINGNWDEVERYLGGFTKVDDNRYSMKIFFEIRKQKYLEALDKHDRSKAVEILVKDLKVFASFNEELFKEITQLLTLENFRENEQLSKYGDTKSARAIMLVELKKLIEANPLFRDKLQFPNLKSSRLRTLINQSLNWQHQLCKNPRPNPDIKTLFVDHSCGQPNG | 4 | 
7 | Arabidopsis TPR2 TOPLESS domain (TPD), TPR2(1–209), tag removed (domain or fragment, UniProt Q9LRZ0 1-209, looked up) MSSLSRELVFLILQFLDEEKFKESVHKLEQESGFFFNIKYFEEKALAGEWDEVEKYLSGFTKVDDNRYSMKIFFEIRKQKYLEALDRNDRAKAVEILAKDLKVFATFNEELYKEITQLLTLENFRENEQLSKYGDTKSARSIMYTELKKLIEANPLFREKLAFPSFKASRLRTLINQSLNWQHQLCKNPRPNPDIKTLFLDHSCSPSNG | 4 | 
8 | Arabidopsis TPR4 TOPLESS domain (TPD), TPR4(1–209), tag removed (domain or fragment, UniProt Q27GK7 1-209, looked up) MSSLSRELVFLILQFLDEEKFKDTVHRLEKESGFFFNMRYFEDSVTAGEWDDVEKYLSGFTKVDDNRYSMKIFFEIRKQKYLEALDKKDHAKAVDILVKELKVFSTFNEELFKEITMLLTLTNFRENEQLSKYGDTKSARGIMLGELKKLIEANPLFRDKLQFPSLKNSRLRTLINQSLNWQHQLCKNPRPNPDIKTLFVDHTCGHPNG | 4 | 
9 | VP16-OsTPR2 full length (natural protein, rice, UniProt Q5NBT9 1-1129, looked up) MSSLSRELVFLILQFLDEEKFKETVHKLEQESGFFFNMKYFEEKVHAGEWDEVEKYLSGFTKVDDNRYSMKIFFEIRKQKYLEALDRHDRAKAVDILVKDLKVFSTFNEELYKEITQLLTLENFRENEQLSKYGDTKSARSIMLIELKKLIEANPLFREKLVFPTLKASRLRTLINQSLNWQHQLCKNPRPNPDIKTLFTDHTCTPPNGARASPVSVPLAAVPKAGGTYPPLTAHTPFQPPPAGPSLAGWMANAAAATSSVPSAVVAASSLPVPPNQAVPIMKRPTITDYQSAESEQLMKRLRPSGHGVDEATYPAPIPQPLWSVEDLPRTVACTLSQGSSVTSMDFHPTRHTLLLVGSTNGEITLWEVGMRERLFSKPFKIWDIQACSPQFQSVAKESSISINRVTWSPDGDLIGVAFAKHLIHLHAYQQPNETRQVLEIDAHSGAVNDIAFSRPNKQLCVVTCGDDRLIKVWDMHGQKLFSFEGHEAPVYSICPHHKESIQFIFSTSLDGKIKAWLYDHMGSRVDYDAPGKWCTTMLYSADGTRLFSCGTSKDGDSYLVEWNESEGSIKRTYSGFRKKSAGVGVVQFDTAQNHILAAGEDNQIKFWDVDNTTMLSSTEADGGLPGLPRLRFNKEGNLLAVTTVDNGFKILANADGLRTLRAFGNRPFEAFRSQYEASSMKVSGAPVVAGISPNIGRMDHIDRNSPAKPSPIMNGGDPASRSIDIKPRISEERPDKAKPWELMEVLNAQQCRVATMPETPDQASKVVRLLYTNSGVGLLALGSNAIQRLWKWARNDQNPSGKATANVVPQHWQPNSGLVMQNDTADTNPEDAVPCIALSKNDSYVMSACGGKVSLFNMMTFKVMTTFMPPPPASTFLAFHPQDNNIIAIGMEDSTIHIYNVRVDEVKTRLKGHQRRITGLAFSNNLQILVSSGADAQLCVWATDTWEKKKSVAIQMPAGKTPSGDTWVQFNSDWSRLLVVHETQLAIYDASKMERIYQWIPQDALSAPISHASYSRNSQLVFAAFTDGNIGIFDVENLRLRCRIAPPAYLSSAAINSNPSVYPLVVAAHPQESNQFAVGLSDGSVKVIEPLESEGKWGTTPPTENGVPNGRTSTSSATSNPAADQIQR |  | luciferase reporter activation above background [4]: ~2 fold
10 | OsTPR2 TOPLESS domain (TPD), TPR2(1–210), tag removed (domain or fragment, rice, UniProt Q5NBT9 1-210, looked up) MSSLSRELVFLILQFLDEEKFKETVHKLEQESGFFFNMKYFEEKVHAGEWDEVEKYLSGFTKVDDNRYSMKIFFEIRKQKYLEALDRHDRAKAVDILVKDLKVFSTFNEELYKEITQLLTLENFRENEQLSKYGDTKSARSIMLIELKKLIEANPLFREKLVFPTLKASRLRTLINQSLNWQHQLCKNPRPNPDIKTLFTDHTCTPPNGA |  | stoichiometry N (crystal structure): 4
11 | OsTPL TOPLESS domain (TPD), TPL(1–209), tag removed (domain or fragment, rice, UniProt Q0J7U6 1-209, looked up) MSSLSRELVFLILQFLDEEKFKETVHKLEQESAFYFNMKHFEDLVQGGEWDEVEKYLSGFTKVEDNRYSMKIFFEIRKQKYLEALDRHDRAKAVEILVKDLKVFASFNEELFKEITQLLTLENFRQNEQLSKYGDTKSARNIMLMELKKLIEANPLFRDKLNFPPFKVSRLRTLINQSLNWQHQLCKNPRPNPDIKTLFTDHSCAAPTN | 4 | 
